assay: soluble on expression in E. coli; label from the status in PepcDB or PDB records

**Q.** For “MGSDKIHHHHHHMYQKGVSTREIGHFIEKILGHSYSASTISQVTDVVTEDITQWQQRPLKKRYSVLYLDGTYLKLRREDVANEVVYLVVGVTEEGYREILGFYVGGQESANGWRNILLDLYSRGLEEVLLGVFDGLAGLEEAMKAVYPKADVQRCVVHKVRNALHAVRKKDQPAVAQDFKPIYQANTYEEAKNRFKEFKENWQKRYPKVVATWEKDLDVLLTFLSYPSTIRPMIYTTNIIERTMKEIKKRTKTMNSLPNEKAAEKIVYLQAIDYNERWATRRLRGFGEAYEALQEMFKQRYSGP”, which “soluble on expression in E. coli” value is on record?
**A.** not soluble

**Q.** For “MGSDKIHHHHHHMYREYQPCGLLAPYVDKIWEFKGSPEYGMRINVLPDGCTDLIFALGGITQPVGSEGRIMPSCRSFFVGPMKRYSELVAYTETVHMVGIRFHPCGLFRFMDLPVQELGGQRISSADLGIKLFDDSFTERLYELPDLRSRIQCIETVLVRSMHKHDVVDKQIVFAVNHIHLYHGQREIRLLAEDTCLCQRHLERRFKLFTGFTPKEYSRIVKFRHAIDLLKNTTEANNLLSVAVNAGYYDVSHFLKEVKTLSGGTAESFLSPTLPQEGLLTYIEK”, which “soluble on expression in E. coli” value is on record?
**A.** not soluble

**Q.** For “MGSDKIHHHHHHMYVDEIHVEKCGPLSVGVYGGNQESDAYERGDAVLAWWDPELQFEFVMIFDTHHKTKNIDYIIEAISERKEKLKELFSYPIHLAFHHTHMYLLALFTDELFIEKCDQDDEELACLICLRKGEFLYWLSVGDCFAYLFHSEKTKNGKGRLNKRKNYEYIGRKNIFAANTPCFTSGVRGLEKGMNHIVMATDGILECDKRRFDDDQSLIEILHDGSCLQIEPVLTNVLQWKGRDCATIIGWSIDTENKRCAN”, which “soluble on expression in E. coli” value is on record?
**A.** not soluble

**Q.** For “MGSDKIHHHHHHMYYEKAVQKTINWIESHLHEQISNEDIVNVSSFSKFHFHRIFQKEVGMSVASYIRLRRLANAAAALLYTDHRIIDIALYYQFESQEAFTRTFKKMYHMPPGAYRTFMKRFTSKKEESYMEKKMKGWVLSGSHPFQFEMGIDRENVHQGKASGYLKSTMVQDIGEFATMMQQFKADRYLGKRLRLSSFIKTKGVQHFASLWMRVDSAADDVLQFDNMSNRPITGTTNWNHYAIVLDVPENSAVISFGVQLSGPGQVWMDHVVFEEVDESVPSTNLEMPGELLDEPVNLSFEEELQK”, which “soluble on expression in E. coli” value is on record?
**A.** not soluble

**Q.** Which “soluble on expression in E. coli” value does the source give for “MGSDKIHHHHHHNKNTLPDSNGTLVPVGSWYLGLSVGVGALKNPLRGQDNIPLYVLPEFRYYGERFSVENLDVSFTLYDAPAYSLELVGQQNMDGLLFPGDNRRLMASFTGMIPIRSRDVVETAVELPPLYPEHKSMSYMAGVAARYFGWFDAQVLALTDVSKVHHGYEINLSLGKQYNWKNINFEAQFGATYKSSKLTEYYYNGEYQELFYQVYNYRADSAINPYIQLSAAYDLGNNYFVSGNVRNIWLDDTIHHSPIFEDTHLLTYFIGIKKLF” here?
**A.** not soluble

**Q.** Which “soluble on expression in E. coli” value does the source give for “MGSDKIHHHHHHNSDVPENTHLVSKEVQAAFNAKYPQAKDVEWELKGDYAVADFYWDGGEHSAWFNPLSAAWYMTETDVRYENLPEPVLAAHKAGKYADWRVDDVDKLTREGMETLYVIEVEKGESELDLFYSSTGILVKTVVDTGHEEDYDDYLPQPDANGIIAIVKQKYPNATIVEIEREKGLQEVTILDENKEKEVYFNERNEWMGTSWDVQVANLPEAVKKSVMEKYSDYVIDDADYVVTPDNEWYILDLENKQIDKELKVKVDKDGVWL” here?
**A.** not soluble

**Q.** With “MGSDKIHHHHHHQAIAPAPADPAAALMPSPWSGSSGELGYASAHGNSTTDSLNGRIRLRYTDGDWIHSLDATALRSSSEYTNTNDDGSVTRERQTTAERYTGSAGSALQLGEHRQLTATGRYEHDDFATYDRLATFGIGYGTRLIDADRFYLDAQIGPGIRRAHNSDDDRNETGLIGRGLFDLKYTVTDNTDLINTLLVESGEYNTYAQNDFGVQVSMNSHFALKAAWQMRHNSDVSEGDKKTDTLTTVNLVYTFK” as the sequence, how does the “soluble on expression in E. coli” value read?
**A.** not soluble

**Q.** Which “soluble on expression in E. coli” value does the source give for “MGSDKIHHHHHHQTQVIAHRGFWKTEGSAQNSIAALLKADSIGCYGSEFDVWLAADDQLVVNHDPTFKGKRMENSPSTALTAIKLDNGESLPTLAKYLKAAQPLHTRLILELKAHSTPLRETKAIEKIVALVKDMGLEERMEYITFSLHATKEFIRLAPEGTPVYYLDGNLSPKELKELGCAGPDYHYTVFRKHPEWIQECHDLGMKVNAWTVNKTDDMKWLIDRKVDFITTNEPVQLKNLLKK” here?
**A.** not soluble

**Q.** For “MGSDKIHHHHHHRFMRIMMTSVLNNTKTQKVKFWLLKNYLSPKFKETIPKLAEFYKFEFELVEYKWPKWLHKQTEKQRVMWGYKILFLDVLFPLNVDKIIFVDADQVVRADLQELMDFNLNGAPYGYVPFCESRTEMDGFRFWKSGYWKNHLMGRKYHISALYVVDLKAFREFSAGDRLRGRYDSLSADPNSLSNLDQDLPNNMLHEVPIKSLPQEWLWCETWCDDGSKEKAKTIDLCNNPLTKEPKLNSAKRIIKEWTEYDSEISKVLNSADINTPSPSVDRDEL”, which “soluble on expression in E. coli” value is on record?
**A.** not soluble

**Q.** For “MGSDKIHHHHHHSAHNKVSSQKLEAKNVNQVSNYSGDIDLLTVSQPTTPTTNNGQINQYFINRFDNAISLLNGKYVVNHNVLPQNTSGEEINILNESVKIANQQLIVGAQKIEKSDIDVKVVQKGNSIILAENPTTLKNSATSMATKHVGVTKVEFHWYGVRLFLSKNDVNKILKYGPTSVSIATIWMPTTWVVKLAASAAVACGWMSSVNGGIWIDWGLIPTKWGWQ”, which “soluble on expression in E. coli” value is on record?
**A.** not soluble

**Q.** With “MGSDKIHHHHHHSNKPEGVIGPFQLVIETKESYLPNDPLDVRVKVFNREKKKENLVLEDFVFSIKRENDTVYEFHFPQRVEKEMEAFESVLVFDLLREEELSNLPGGNYTITVSVKLNGQRVVISKVVSVIEKWQIEVEDLKDFYFPYENVHFFVYLENISSKSRKIRVESIGLIILKGNEAVFERDIPIEKDFVINPMMVEQIHEVSFSAPKESGDYIIKLKLKTESSLIEKSIPLFVTREYQKDLKGLSLVIEGKKFVASGERYDFSVKLLNEEKKRKYIVLKNIMIVLTHKEPVFSYAYSEEYRMTIEGYSSREIFKTTSYDIIKLEDPGTYKLIVVIESEEDRLMKEMEIVVSE” as the sequence, how does the “soluble on expression in E. coli” value read?
**A.** not soluble

**Q.** For “MGSDKIHHHHHHTYTPGTMGEGVVYYLPKTEIELQVTATKVVYTPGEFCQYADRYLRLTGISSQPEEHWEINSIKVNSIGIPDPDNAYAVKLKDKSAASQVELTPEGIIKAINTTSPIEKAPVTKVADTVKKRIDPRSFMTEEILIAGSTAKMAELVAKEIYNIRESKNSLTRGQADYMPKDGAALKLMLDNLDEQEQAMMQMFAGTTDRIEKSFTIRIKPEADMKEKVAFRFSKKLGMLDADNLSGEPYYISIVNQETLPPMDPKGKEKKKTDGVIYNIPGKAQVTVFTPNKRYFDGELPVTQFGTTECLIDNLFNKKVNTRVIFNPNTGGIVKIDKD”, which “soluble on expression in E. coli” value is on record?
**A.** not soluble

**Q.** For “MGSDKIHHHHHHVAFSAKASLATAIGRSSYWFLHTFLKGGSSLPGQIANRIDPQVLRTLGQNYDVIVVTGTNGKTLTTSLIVKVLKKKYKEVLTNPTGSNMLQGITTAFLAQPKRGHGRGIAVLEVDEANVAPVAAQLKPKAFVLTNIFRDQMDRYGEFYTTYQKILDGVTRDPEAMVIANGDAPIFSSRKLPNPVTYYGFELTANGDHKAPPNTDGVLCPVCQHILHYHAQTYANLGNYFCPHCGFKRPALTHQITEVTQMTPQSSDFMIDDQPCHIDIGGMYNIYNALAAFAVGRAFGVTPTEISQAFAYDEKVFGRQEVIQLGKKKLTLILVKNPVGLNQVLSMIETAKQPFGFAMLLNANYADGIDTSWIWDGNFEELVASQKAASYLVGGERYKDIGLRLTVAGVPEKALVSKPALDDVISTLKRSQQDQLYVLATYTAMLQLRKKLSDGGYIKAGF”, which “soluble on expression in E. coli” value is on record?
**A.** not soluble

**Q.** For “MGSDKIHHHHHHVAIALDFGTSNTVVARWNTETQSPELLSLTNLSQRGSQTPPLIPSLLYVEEATMPRLLAGQAVRDQGRDRPQDSRFFRSFKRGIGAEVTGFLPDLDGVCPDFEQVGQWFLDTVIAALEPGDRDGADLVLTVPVDSFENYRLWLSRVAQQWPVDRVRLIDEPTAAALGYGVEQQSPILVFDFGGGTLDLALIELGQTTSKVRSPLGFILKWGDQSFGDNSGQRPQLARVLAKAGRNLGGNDLDDWLTDYFAKQLNTAPTRVLTRLAERIKIQLSTTPEASEVYFDDETLQSLQLQLDRSQFQQILHDRGFFEQLDELLESVLQQGRRQGINPDAIAAVLMVGGSAQIPAVQDWLAGYFPTEKIRCDRPFEAVACGALQLAQGLEVRDFLYHSYGIRYWNHRSQRHDWHPLIPPGQAYPMAEPVELVLGASVAQQPSMELVLGELSQDRGATEIFFDGDRLITRRIGPDRTAAKALNDSETARTIARLDPPGDPGVDRLRLQFWVDRDRFLRVTIEDLLTLETVVENQVVIQL”, which “soluble on expression in E. coli” value is on record?
**A.** not soluble

**Q.** With “MGSDKIHHHHHHVETSASVMEPFLQLLRGNNLRWRSFGLTRQDGNVSETEAIPNPQDTVDTHPWGRYVAMGDSFTEGIGDPEPGSPGGHRGWADRVAEELSRGHSDFAYANLAVRGRLLEQIVDQQLAPCLALKPDLVTLSAGGNDLIRPGGDPDALAEKLDSVVHILSLGGATVVLFNGPDTGSSVLGRVRSKIAIYNENLRTVAARHDAVIADMWSLRQLSDPQMWDQDRLHFSPLGHHTIAAMVLDSLNIRHTLEPLSPKPLPQRSWREARSGDLVWAREYFVPWVVRRLRHQSSGDGVTAKRPTPGPVFGPGMPLGSGEAPGIEAEQR” as the sequence, how does the “soluble on expression in E. coli” value read?
**A.** not soluble

**Q.** With “MGSDKIHHHHHHVIGKLTLDQLRVLVAVADTGSFTAASQAVGRAQSAVSQMMAALENAQGVQLFDRSSYRPMLTEAGRVLVAQARTTLAGASRFEAMAEHMRSGVEAELALAIDPLVPSAPFMQGLRDLSARYPDLSVSFSTEGLGGSLRRLRDGSASLGICTLLPTVPDDVVAYPLLQTAMTPVVAGNHPLASQDGPLQRGDLEPHVQLVLSDPVEPSGPNYGLTSARLWRFADLNRRLDFLLGGFGWCRMPEHLVADALADGRLVALDIKNDNAPQDGLPIYAAHARDRALGPAGRWFLDAMRECMAAA” as the sequence, how does the “soluble on expression in E. coli” value read?
**A.** not soluble

**Q.** For “MGSDKIHHHHHHVKKSESLPVLIVTGLSGAGKSTVLNVFEDLRFFTIDGLPVGVVADLLEHLARDAMGRYRGVVLGMDLRQFDFLDEFEGALMRLEKMGVSPRIIYLEADSDTLVRRFATTRRPHPLEGGDLGLEAAVEHERNLLAPVRERADLILDTSEFSIHDLRRIVQKKWSSLGGSLRSLRVNLITFGFKYGVPSDADMVFDLRFLPNPYFDAKLKALSGKDPEIQQFVLGCEQGKTFFKRFLDFLLFLLPQYEAEGRYRITLAIGCTGGRHRSVSTAEALRDALKKSDYAVSLEHRHIDLG”, which “soluble on expression in E. coli” value is on record?
**A.** not soluble

**Q.** For “MGSDKIHHHHHHVLIWWRGKFRRADEISLDFSLFEKSLQGAVYETLRTYSRAPFAAYKHYTRLKRSADFFNLPLSLSFDEFTKVLKAGADEFKQEVRIKVYLFPDSGEVLFVFSPLNIPDLETGVEVKISNVRRIPDLSTPPALKITGRTDIVLARREIVDCYDVILLGLNGQVCEGSFSNVFLVKEGKLITPSLDSGILDGITRENVIKLAKSLEIPVEERVVWVWELFEADEMFLTHTSAGVVPVRRLNEHSFFEEEPGPVTATLMENFEPFVLNLEENWVGI”, which “soluble on expression in E. coli” value is on record?
**A.** soluble

**Q.** Which “soluble on expression in E. coli” value does the source give for “MGSDKIHHHHHHVNQVSARRPVTVTGEDWFEIAKTLEISSESVVQDFLRDNPGFAADLVIPKRVTIETVFGCNARCGMCVIDQPTERPKGTMPLEQFKAIVDKLVPYRDRIEMMDFFALGEPLIDTHLFERIRYVKAKGFRRLAFATNAHLLTAAKRRDLLESGIDTVIFSIDGITKATHESIRERVNFDKVMENVQAVIRERDQGDFKTRFVVRFVRQAKNRHEWEEYKAFWSSRISPDRNDVVTSYDMHTWGGQVANKDDVIGGEQQRDEMVERLPCHHAFDKLTILADGSIPLCSEDILEPAYGFGKIGDQDPIQVFNSERLRAMRRLHLAGRKALLKGCGECTLLYSEPRRGSD” here?
**A.** not soluble
